# Source: the DeepSol protein solubility set
# Assay: soluble on expression in E. coli; label from the status in PepcDB or PDB records
row,Sequence,soluble on expression in E. coli
1,MKTIYIYKGSIPEDKKKGDNAIWVTEKKIIDALEKAANSNGESTQSNPKTIALQAAKKETKKSNKKESKTIGYTTTGYVNADGKHIFDTDRINNERFDRKIIIGATLETLDQSSTLQSGEAIVLPAPGKYKSSDQKTVMTAQGPKIIGIHANAKENEETQKFVNWF,soluble
2,MRPAGRSNNQVRPVTLTRNYTKHAEGSVLVEFGDTKVLCTASIEEGVPRFLKGQGQGWITAEYGMLPRSTHTRNAREAAKGKQGGRTMEIQRLIARALRAAVDLKALGEFTITLDCDVLQADGGTRTASITGACVALVDALQKLVENGKLKTNPMKGMVAAVSVGIVNGEAVCDLEYVEDSAAETDMNVVMTEDGRIIEVQGTAEGEPFTHEELLILLALARGESNPL,soluble
3,MKKKMMTVFTIGVMSLSILGGASPSETQKGKTDYTQRSKEQLNNGKIHAVHTEEKAEKLGIETEGKEQITLEKEIHETEVGREAEQLGISIEGKDVGMLSEEIYETKVKQEALKLGISIENTSIVDLITQINAIKIKDEADKLGISTDGKEIEDIAEEIYGKKVREEAGKLDISQKGKEIEELAQEVYEQKVQEEAKKHHIDLYGKDIYQILREINEQKVLQMADELNMDKMNMNIQELAEKIKKDQPEKGKELNFVPMVRTDADAFYSYLTNLEHHHHHH,not soluble
4,MSLNFVAMDFETANQHPASACSLALVLVRESKIIDRFYTVINPQMAFDAQQVKVHDITAEDVAGAPTMAEVWPKIQPLFQPGMLVAAHNARFDCNVMKQSLARYGIAEPHYLVLDSLKVSRELEPGLDNYQLNTVSDLLGVELWHHHNALSDSEACAGILLKEEEKRGSELLKKFVYQVEGHHHHHH,not soluble
5,MSLHYQPKQDLLQNRIILVTGASDGIGREAALTYARYGATVILLGRNEEKLRRVAQHIADEQHVQPQWFTLDLLTCTAEECRQVADRIAAHYPRLDGVLHNAGLLGEIGPMSEQDPQIWQDVMQVNVNATFMLTQALLPLLLKSDAGSLVFTSSSVGRQGRANWGAYATSKFATEGMMQVLADEYQNRSLRVNCINPGGTRTSMRASAFPTEDPQKLKTPADIMPLYLWLMGDDSRRKTGMTFDAQPGRKEGHHHHHH,soluble
6,SGNTSSERSGGEKTHRRESRSGKDGTRPKILMDSAEDGDLFQSDDAKEFLAWRQDQESDSKTPLEERPTVFRWKGPGKEIYLSGSFNNWATKIPLNKSHNNFVAIIDLPEGEHQYKFYVDGHWTLDPKEPVVTNKSGVVNNVIKVRKTDFEVFDALKTDSEKCADMSDLSSSPPGPYHQDPYSTKSEDKLRSPPILPPHLLQVLLNKDTGISCDPTLLPEPNHVMLNHLYALSIKDGVMVLSATHRYKKKYVTTLLYKPI,soluble
7,GPLGSAAAATPAVRTVPQYKYAAGVRNPQQHLNAQPQVTMQQPAVHVQGQEPLTASMLASAPPQEQKQMLGERLFPLIQAMHPTLAGKITGMLLEIDNSELLHMLESPESLRSKVDEAVAVLQAHQAKEAAQKAVNSATGVPTV,soluble
8,MGSDKIHHHHHHAVNCYVGNYYRADSIAEAAIDSDREVAVTIEKKDKRIQATQYDLKLKNYTITFAPQDKEKATKALIFYPGGRVQYTAYAPLMHELAKNNFVCILVHMPGNLAVLDQNAADGIIEKYKEIYPSIQEWYMGGHSLGGAMAAEYVAKHVDEFDGLYLFAAYSTADLSDSDLRVFSVYGSEDGVLDMDKYRKYRSNLPEDTYEYVIDGGCHSYFGSYGLQKGDGTPDVAFEEQIEMTVDFITYNSK,not soluble
9,GHMKIVLKIFHAGSLSVPFEEYEKMFEKEHPNVDVEREPAGSVACVRKIIDLGKKADILASADYSLIPQMMMPKYADWYVMFARNEIVLAYTDKSKYKDEINSTNWYKILQRPDVKIGFSNPNDDPCGYRTQMVLQLAELYYKDPTIYDNLVLKHSNIKVEENNGTYLILVPKELDVDTNKLFVRSKETDLLAPLEAGAFDYLFIYKSVANQHHLKYIELPKEINLGYYEYADTYKKVALKIIAKNKTINAKPIVYGMTVPTNAPHKKEAIEFVKFVLGHPEVLENNGQPAI,soluble
10,MQFSKMHGLGNDFVVVDGVTQNVFFTPETIRRLANRHCGIGFDQLLIVEAPYDPELDFHYRIFNADGSEVSQCGNGARCFARFVTLKGLTNKKDISVSTQKGNMVLTVKDDNQIRVNMGEPIWEPAKIPFTANKFEKNYILRTDIQTVLCGAVSMGNPHCVVQVDDIQTANVEQLGPLLESHERFPERVNAGFMQIINKEHIKLRVYERGAGETQASGSGACAAVAVGIMQGLLNNNVQVDLPGGSLMIEWNGVGHPLYMTGEATHIYDGFITL,soluble
11,MAHHHHHHMTKTNGQNAARKLVRLRCRNRWADKGWKRAHTFSARKANPFGGSSHAKGIVLEKIGVGAKQPNSAIRKCVRVQLIKNDKKIIAFVPNDGCLHFIEENDEVLVSGFGRSGHAVGDIPGVRFKIVKVSNVGLYALYRQKKEKPRN,not soluble
12,MLDTNMKTQLRAYLEKLTKPVELIATLDDSAKSAEIKELLAEIAELSDKVTFKEDNTLPVRKPSFLITNPGSQQGPRFAGSPLGHEFTSLVLALLWTGGHPSKEAQSLLEQIRDIDGDFEFETYYSLSCHNCPDVVQALNLMAVLNPRIKHTAIDGGTFQNEITERNVMGVPAVFVNGKEFGQGRMTLTEIVAKVDTGAEKRAAEALNKRDAYDVLIVGSGPAGAAAAVYSARKGIRTGLMGERFGGQVLDTVDIENYISVPKTEGQKLAGALKAHVSDYDVDVIDSQSASKLVPAATEGGLHQIETASGAVLKARSIIIATGAKWRNMNVPGEDQYRTKGVTYCPHCDGPLFKGKRVAVIGGGNSGVEAAIDLAGIVEHVTLLEFAPEMKADQVLQDKVRSLKNVDIILNAQTTEVKGDGSKVVGLEYRDRVSGDIHSVALAGIFVQIGLLPNTHWLEGALERNRMGEIIIDAKCETSVKGVFAAGDCTTVPYKQIIIATGEGAKASLSAFDYLIRTKIA,soluble
13,SFPNRRIVTTVFNDEGIQFLVTRYIKALNPPQQLLDIFLHNSNATFDLIARFVSLIPFVPNTPDENDGSDIWMTSEHCISLAIGNKEEHAILLCNFFLYFGKKALVLLGTSVLEGHVAYVVTQETNEYLLWNPSTGQCYKQFDPFCPLKSVDCLFDDRNVWFNIQQNNTPMAVFFDYSKESFWKQLLPKNVQGTKIQSIQVTGFPIQMPYIDVQSIIDAVYQTGIHSAEFPQTEFALAVYIHPYPNNILSVWVYLASLVQHQ,soluble
14,MFTYKIGLSTSEHDRFVIDSPQTNLLQSSSWAKIKDSWGNDRLGFYQDDKLVAVASVLIQPLPLGFSMIYIPRGPIMDYQDKELLAFVITSLKKYAKTKRALFVKFDPSLFVTKNLISQEVNINEDTLSIAKDIQALGVEWTGLTEDMAENIQPRFQANIYKEDFTEEQLSKST,not soluble
15,EVQLQQSGAELVRPGALVKLSCKASGFNIKDYYMHWVKQRPEQGLELIGWIDPENGNTIYDPKFQDKASITADTSSNTAYLQLSSLTSEDTAVYYCARDTAAYFDYWGQGTTLTVSSAKTTPPSVYPLAPGSAAQTNSMVTLGCLVKGYFPEPVTVTWNSGSLSSGVHTFPAVLQSDLYTLSSSVTVPSSTWPSETVTCNVAHPASSTKVDKKKIP,soluble
16,MGSDKIHHHHHHMNPVLKSSKLVIFDLDGTLYEGTDHFDYYANHLKQNVPQSQQLDFWRDYTAMKDGHHPVQIGKGYDVKRDYILTIDPMTISVQSVQTWDGSYVPAEEWETLYSDPVSFDFETIIAVGDGWWYPFVTAKHYGVEDCYASYVATKEYMVTDEFELTPLPGLREGLIELKATKEIVLVTNSDREDVQRLLHELHLHDVFNHIITSAKKPTRTTDIFKEVVHQYEVDMSQVVSVGDNFMNEIAQALTLGMQGIYIHPQRASEVAHDHLTVIRSVVELFKN,not soluble
17,SLSTVELSGTVVKQGYLAKQGHKRKNWKVRRFVLRKDPAFLHYYDPSKEENRPVGGFSLRGSLVSALEDNGVPTGVKGNVQGNLFKVITKDDTHYYIQASSKAERAEWIEAIKKLT,soluble
18,MSLKNVLITGANSYIGLSFKNWLAKEPEKYKVDSISLRGDLWKEKDFSQYDVLLHAAGIAHIKETKENKELYFKVNRDVAYEAAKKAKDEGIKQFIFLSSMSVYGKENGIIDLDTLPKPTSNYGESKLQAEKLIEMLDDDSFKVVTIRPPMIYGKGCKGNYPKLAKLARKLPVFPDVENERSMIHIENLCEFMKLIIDNNDAGLFLPQNDDFVKTSEMVRLIGETNGKRIKLTKFFNPVLNLFIGKIGVVNKVFGNLKYKKEISNYKDNYIINNFAESIRRTEEGHHHHHH,soluble
19,MNNKLIYRSVRFATHNSQLLLPPLVLYRRILRQHKLLPGPQREMGDQYVRNEFKLHKDIDNPLHIVGFLASWQDYLHMISNGKWKDATLSSETLEKLSPEQTVQLYELMKETQKLHQDNEIESSKDVKRNNKD,not soluble
20,LVHLSVHNYAIVEHLDLELDRGMSVITGETGAGKSIMLDALGLTLGDRADSGVVRPGADKADILATFDLGDIPEAEAWLKERDLDNDGPCILRRVITAEGRSRSYINGSPCPQGDLKALGELLIDIHSQHEHQSLLKTDTHRRLLDEYAGATDLARQVHLAAQRWRQTRQELERL,not soluble
21,SNAKDVLGLTLLEKTLKERLNLKDAIIVSGDSDQSPWVKKEMGRAAVACMKKRFSGKNIVAVTGGTTIEAVAEMMTPDSKNRELLFVPARGGLGEDVKNQANTICAHMAEKASGTYRLLFVPGQLSQGAYSSIIEEPSVKEVLNTIKSASMLVHGIGEAKTMAQRRNTPLEDLKKIDDNDAVTEAFGYYFNADGEVVHKVHSVGMQLDDIDAIPDIIAVAGGSSKAEAIEAYFKKPRNTVLVTDEGAAKKLLRDE,soluble
22,MGSDKIHHHHHHMFSQNDNINILVIRFKRIGDAILSLPLCHSLKLTFPNSKVDFVLYEDVAPLFEGHPYIDNVITITKEEQKNPFKYIKKVYNVTRKKYDIIIDIMSTPKSELFCMFSRKTPFRIGRYKKKRGFFYNYKMKEKESLNKVDKFLNQLLPPFEEVGFDVKKDYDFKFFAEKKEKEKYKQKMLETGVDFSKPVIAFSIYSRVAHKIYPIDKMKEVVKFLINRYSAQIIFFYSADQKDEIQKIHKEIGDFKNIFSSIETPTIKNLVPFLENCDYYIGNEGGARHLAQGVGIPTLAIFSPSADLKEWLPFPSEKNMGISPIDMLEKNALSLDDFNKMNPEEQFSLIDIETIKEMSDELIEKNKRK,not soluble
23,MSLSEIDQVSYNFHIRPILSDKCFACHGPDANKREADLRLDTEEGAFKALKESPGKFALVSGKPEESELFHRITSEDPGELMPPTESNLVLSDTEIGLIKKWIEQGAEYEPHWAFTKAEKPELPSENEWAVNEIDRFVYQKMVEKGLEPNPKADPQELIKRASLDITGLPPSPEILDQYSDLSNDAYQNLLDGLLADPSFGEKLGVLWMDISRYADSYGYQDDNIRSQWPYRDWVIHAFNENMPYDQFITYQLAGDLLPNATKEQILATAFNRNHKYTEEGGVIDEEYRIEYVLDKTNTFSKGVLGITMECAQCHDHKYDPFSQKDYYELFAFFNNTPEKGYEGDVSVSKPAKTPILWVDQEGHHHHHH,soluble
24,MNIVIAAVGGQGAVLTSKILGTLAQNLGKDVKVSEVHGMSQRGGSVVAYVKFGDKVYSPVVEKGTADIVLAFEMLEGARYVDYLKENGKLVVNTQRIDPMPVITGDMEYPADLGEKLEELNIGYIPVDALSLAKNAGTIKAVNVALIGVLAQNSNIKKEEWIKAIKDTVPEKFLELNLKAFELGYNLE,soluble
